Experimental data taken from patent US20230272117A1 (published 2023).
Numbering of substitutions follows the chain as printed.

B1: C1.831.hu41 (antibody, V domains shown)
VH: EVQLQESGPGLVKPSETLSLTCTVSGFSLTSQGVSWVRQPPGKGLEWIAAISSGGNIYYNSVLKSRLTISRDTSKNQVSLKLSSVTAADTAVYYCTRERGWNYPFITSGYYFDYWGQGTLVTVSS
VL: DIQLTQSPSSLSASVGDRVTITCKAGQNINNYLAWYQQKPGKAPKLLIYNANSLQTGIPSRFSGSGSGTDYTLTISSLQPEDFATYYCQQYNSWYTFGQGTKLEIK
B2: C1.505.hu11 (antibody, V domains shown)
VH: EVQLQESGPGLVKPSETLSLTCTVSGFSLTSNGVSWVRQPPGKGLEWIAAISSGGSTYYNSAFKSRLTISRDTSKNQVSLKLSSVTAADTAVYYCARHRGYYWSNWGYFDYWGQGTLVTVSS
VL: B1 VL with A25G, G26S, N50K, A51T, Q89C, S93D, W94G
B3: C1.309 (antibody, V domains shown)
VH: QVQLKESGPGLVAPSQSLSITCTVSGFSLTSYDITWIRQPPGKGLEWLGVIWTGGGTNYNSAFMSRLSISKDSSKSQVFLKMNSLRTDDTAIYYCVRDLRYGYDGFWYFDVWGAGTTVTVSS
VL: DVVMTQTPLSLPVSLGDQASISCRSSQSIVHSNGNTYLEWYLQKPGQSPKLLIYKVSNRFSGVPDRFSGSGTGTDFTLKISRVEAEDLGVYYCFQGSHVPRTFGGGTKLEIK
B4: C1.781A (antibody, V domains shown)
VH: EVQLTESGPGLVQPSQTLSLTCTVSGFSLTSNGVSWVRLPPGKGLEWIAAISSGGNIYYNSALKSRLSISRDTSKSQVFLKMNSLQTEDTAIYFCTRERGWNYPGITNGYYFDYWGQGTSVTVSS
VL: DIVLTQSPSLLSASVGDRVILSCKAGQKINNYLAWYQQKLGEAPKLLIYNANSLQTGIPSRFSGSGSGTDYTLTISSLQPEDVATYFCQQYNSWYTFGAGTKLEIK
B5: C1.779B (antibody, V domains shown)
VH: EVKLLESGPGLVQPSQTLSLTCTVSGFSLTSNGVIWVRQPPGKGLEWIAAISSGGNIYYNSGLKSRLGISRDTSKSQVFLKMNSLQTEDTAIYFCTRARGTTTAYFMDAWGQGASVTVSS
VL: ETVMTQSPSSLAVSAGETVTMNCKSSQSLLYSGNQKNYLAWYQQKPGQSPKLLIYWASTRQSGVPDRFIGSGSGTDFTLTISSVQAEDLAIYYCQQYYDTLMKMFGAGTKLEIK
B6: C1.844 (antibody, V domains shown)
VH: B5 VH with K3Q, L5K, F106V
VL: B5 VL with E1D, T2I, T20N, M21I, G33V, I113L
B7: C1.830B (antibody, V domains shown)
VH: EVQLKESGPGLVRPSQTLSLTCSVSGFSLTNYNVHWVRQPTGKGLEWMGIIWTGGYTDYNSDLKSRLSITRDTSKSQVFLKMNGLQTEDVATYYCARERHTMGITKSWYFDYWGQGASVTVSS
VL: DILMTQSPASLSASLGETISIECLASEGIFSYLGWYQQKPGKSPQLLIYGANSLQAGVPSRFSGSGSGTQYSLKISSMQPEDEGDYFCQQSYKFPVTFGSGTKLELK
B8: C1.786a (antibody, V domains shown)
VH: EVQLTESGLGLVQPSQTLSLTCSVSGFSLTSYNVHWVRQPTGKGLEWMGVIWTGGYTDSNSPLKSRLSITRDTSKSQVFLKMNSLQSEDIATYYCARERHTMGITKSWYFDYWGQGVMVTVSS
VL: B7 VL with I2V, L3Q, G34A, S53T
B9: C1.861.hu41 (antibody, V domains shown)
VH: EVQLQESGPGLVKPSETLSLTCTVSGFSLTSSGVTWVRQPPGKGLEWIAAISSGGNIYYNSAVKSRLTISRDTSKNQVSLKLSSVTAADTAVYYCTRARGTTTAYVMDAWGQGTTVTVSS
VL: DVQLTQSPSSLSASVGDRVTITCKSSQSLLYSGNQKNYLAWYQQKPGKSPKLLIYWASTRQSGVPSRFSGSGSGTDFTLTISSLQPEDVATYYCQQYYDVLMNMFGGGTKLEIK
B10: C1.861.hu61 (antibody, V domains shown)
VH: EVQLVESGGGLIQPGGSLRLSCAVSGFSLTSSGVTWVRQPPGKGLEWIAAISSGGNIYYNSAVKSRLTISRDTSKNTVYLQMNSLRAEDTAVYFCTRARGTTTAYVMDAWGQGTTVTVSS
VL: B9 VL
B11: C1.777a (antibody, V domains shown)
VH: EVQLVESGPGLVQPSQTLSLTCTVSGFSLTNNGVSWVRQPPGKGLEWIAAISSGGSIYYNLAFKSRLSISRNTSKGHVLLKMNSLQTEDTAMYFCVRHRGYYGFNWGYFDYWGQGVMVTVSS
VL: NIQLTQSPSLLSASVGDRVTLSCKGSQNINNYLAWYQQKLGEAPKLLIYKTNSLQTGIPSRFSGSGSGTDYTLTISSLHSEDLATYYCYQYNDGYTFGAGTKLELK
B12: C1.845 (antibody, V domains shown)
VH: B11 VH with H77Q, V96A, F104Y, V116A, M117S
VL: B11 VL with T69S
B13: C1.778b (antibody, V domains shown)
VH: B11 VH with L4R, V5K, L61S, N72I, G76S, H77Q, V96A, F104Y
VL: NIQLTQSPSLLSASVGDRVTLSCKGSQNIDNYLAWYQQKLGEPPKLLIYKTNSLQTGIPSRFSGSGSGTDYTLTISSLHSEDLATYYCYQYNNGYTFGAGTKLELKR
B14: C1.784a (antibody, V domains shown)
VH: EVKLEESGPGLVQPSQTLSLTCTVSGFSLTNNGVSWVRQPPGKGLEWIAAMSSGGNIYYNSAFKSRLSISRDTSKSQVLLKMSSLQTEDTAMYFCGRHRGYYWYNWGFFDYWGQGASVTVSS
VL: B11 VL with Y71F, Y89C, D93N
B15: C1.876 (antibody, V domains shown)
VH: B11 VH with E1Q, V5K, I51M, L61S, N72H, G76S, H77Q, K81Q, V96T, F104Y
VL: B11 VL with N1D, R18S, T20S, S22R, N30Y, S53N, H79N, Y89C, D93N, L103V
B16: C1.851 (antibody, V domains shown)
VH: B14 VH with K3Q, E5K, V37I, M51I, D72N, S76R, S83N, G96A, W103G, F108Y
VL: B13 VL with D30N, P43A, Y89C
B17: C1.877 (antibody, V domains shown)
VH: EVQLTESGPGLVQPSQTLSLTCTVSGFSLTSNGVSWVRQPPGKGLEWIAAISSGGSTYYNSAFKSRLSISRHTSKSQVLLNMNSLQTEDTAMYFCARHRGYYWSNWGYFDYWGQGVMVTVSS
VL: B11 VL with N1D, Q3V, L4M, K50E, I75L, L105I
B18: C1.847 (antibody, V domains shown)
VH: EVQLKESGPGLVQPSQTLSLTCTVSGFSLTNNGVSWVRQPPGKGLEWIAAISSGGNIYHNSALKSRLSISRNTAQSQVLLKMNSLQTEDTAMYFCARHRGYYGYNWGYFDYWGQGTLVTVSS
VL: B11 VL with N30Y, Y89C, D93N
B19: C1.855 (antibody, V domains shown)
VH: B18 VH with N31S, S53N, H59Y, L63F, N72H, A74S, Q75K, T116A, L117S
VL: B11 VL with A34G, K45R, D93N
B20: C1.773a (antibody, V domains shown)
VH: B17 VH with T5K, T57I, N81K, W103G, S104Y, V116A, M117S
VL: B11 VL with Y89S, D93N, L105I
B21: C1.841 (antibody, V domains shown)
VH: B17 VH with T5L, S31N, I48V, I51M, S56N, T57I, N81K, W103G, S104Y
VL: B11 VL with R18S, T20S, S22R, N30Y, S53N, H79N, Y89C, D93N
B22: C1.879A (antibody, V domains shown)
VH: B17 VH
VL: B13 VL with N1D, D30N, L40V, P43A

Tests used:
cynomolgus monkey ABCC1 [1] = target: T1, cynomolgus monkey ABCC1 (UniProt Q864R9 1-1531); assay: FACS cell binding
[2] = target: T2, human ATP Binding Cassette Subfamily C Member 1 (ABCC1) (UniProt P33527 1-1531); assay: FACS cell binding
[3] = target: T2, human ATP Binding Cassette Subfamily C …; assay: FACS titration on C6 cells
[4] = target: T2, human ATP Binding Cassette Subfamily C …; assay: FACS titration on H69AR cells
cynomolgus monkey ABCC1 [5] = target: T1, cynomolgus monkey ABCC1; assay: FACS titration on C6-cC1 cells
[6] = target: T2, human ATP Binding Cassette Subfamily C …; assay: FACS titration on C6-hC1 cells
cynomolgus monkey ABCC1 [7] = target: T1, cynomolgus monkey ABCC1; assay: FACS titration on C6 cells; C6 cells

T1 sequence (Q864R9 whole entry): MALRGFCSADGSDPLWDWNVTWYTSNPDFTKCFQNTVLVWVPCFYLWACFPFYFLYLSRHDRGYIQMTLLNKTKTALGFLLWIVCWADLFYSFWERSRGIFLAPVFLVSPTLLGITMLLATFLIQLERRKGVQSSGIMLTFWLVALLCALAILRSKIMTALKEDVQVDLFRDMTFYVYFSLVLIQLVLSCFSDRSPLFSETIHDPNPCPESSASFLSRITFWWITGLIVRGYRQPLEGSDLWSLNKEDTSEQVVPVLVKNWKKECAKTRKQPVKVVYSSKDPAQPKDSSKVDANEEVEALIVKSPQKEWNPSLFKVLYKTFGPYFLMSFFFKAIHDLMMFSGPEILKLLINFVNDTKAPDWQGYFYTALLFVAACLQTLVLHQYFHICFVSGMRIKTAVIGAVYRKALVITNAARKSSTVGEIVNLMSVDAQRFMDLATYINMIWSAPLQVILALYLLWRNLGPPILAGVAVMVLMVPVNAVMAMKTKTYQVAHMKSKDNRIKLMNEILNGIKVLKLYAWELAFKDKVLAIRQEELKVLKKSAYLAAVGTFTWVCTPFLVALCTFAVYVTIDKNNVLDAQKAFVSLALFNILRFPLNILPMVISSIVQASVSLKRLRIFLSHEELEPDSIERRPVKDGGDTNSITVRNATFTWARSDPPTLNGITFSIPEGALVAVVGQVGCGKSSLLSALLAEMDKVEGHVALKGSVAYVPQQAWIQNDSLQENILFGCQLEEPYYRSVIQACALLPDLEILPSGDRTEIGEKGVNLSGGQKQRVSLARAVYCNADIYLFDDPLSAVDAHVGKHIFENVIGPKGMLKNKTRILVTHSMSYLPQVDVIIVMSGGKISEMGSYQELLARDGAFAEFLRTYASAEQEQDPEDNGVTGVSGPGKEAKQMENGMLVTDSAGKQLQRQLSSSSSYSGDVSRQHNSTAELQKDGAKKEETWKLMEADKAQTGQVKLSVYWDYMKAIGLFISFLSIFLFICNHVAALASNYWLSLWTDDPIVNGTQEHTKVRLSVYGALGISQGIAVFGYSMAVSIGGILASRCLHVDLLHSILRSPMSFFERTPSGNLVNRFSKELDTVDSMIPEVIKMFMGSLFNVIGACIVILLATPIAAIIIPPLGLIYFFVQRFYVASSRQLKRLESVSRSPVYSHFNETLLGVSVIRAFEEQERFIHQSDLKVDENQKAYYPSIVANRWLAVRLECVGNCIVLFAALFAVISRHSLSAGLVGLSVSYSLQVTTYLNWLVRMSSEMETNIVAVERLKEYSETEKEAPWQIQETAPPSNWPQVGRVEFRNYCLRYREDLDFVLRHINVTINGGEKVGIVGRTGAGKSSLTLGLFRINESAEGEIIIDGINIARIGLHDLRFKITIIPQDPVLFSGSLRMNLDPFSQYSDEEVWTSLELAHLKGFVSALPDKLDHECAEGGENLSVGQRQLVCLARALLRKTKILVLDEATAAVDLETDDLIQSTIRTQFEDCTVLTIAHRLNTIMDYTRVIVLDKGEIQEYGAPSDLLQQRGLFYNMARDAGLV

Binder | Kd [3] [µM] | Kd [4] [µM] | Kd (cynomolgus monkey ABCC1 [5]) [µM] | Kd [6] [µM] | other results
B1 | – | – | – | – | Kd (cynomolgus monkey ABCC1 [1]): 0.02 µM; Kd [2]: 0.021 µM
B2 | 0.158 | – | – | – | –
B3 | 0.133 | 0.01 | – | – | –
B4 | 0.116 | – | – | – | –
B5 | 0.0833 | 0.0101 | – | – | –
B6 | – | – | 0.0341 | 0.0651 | –
B7 | – | – | 0.0086 | 0.0144 | –
B8 | – | 0.0083 | – | – | –
B9 | – | – | – | – | Kd (cynomolgus monkey ABCC1 [1]): 0.064 µM; Kd [2]: 0.156 µM
B10 | – | – | – | – | Kd (cynomolgus monkey ABCC1 [1]): 0.135 µM; Kd [2]: 0.218 µM
B11 | 0.0412 | 0.0042 | – | – | –
B12 | – | – | 0.0201 | 0.0218 | –
B13 | 0.667 | 0.0087 | – | – | Kd (cynomolgus monkey ABCC1 [7]): 0.0282 µM
B14 | 0.0382 | 0.007 | – | – | –
B15 | – | – | – | – | Kd (cynomolgus monkey ABCC1 [7]): 0.0037 µM
B16 | – | – | 0.028 | 0.098 | –
B17 | – | – | – | – | Kd (cynomolgus monkey ABCC1 [7]): 0.0668 µM
B18 | – | – | 0.0233 | 0.0217 | –
B19 | – | – | 0.279 | > 1 | –
B20 | 0.033 | 0.0032 | – | – | –
B21 | – | – | 0.0423 | 0.103 | –
B22 | – | – | – | – | Kd (cynomolgus monkey ABCC1 [7]): 0.0272 µM
